Patent EP4578874A1 (SunRock Biopharma S.L., dated 2025)

Key:
[1] = target: T1, human CCR9 (C-C chemokine receptor type 9) (human, UniProt P51686 1-369); test: screen of murine hybridoma antibodies for affinity to CCR9 (ELISA, then flow cytometry); format not detailed
T1 construct: also called huCCR9; hCCR9
T1 sequence: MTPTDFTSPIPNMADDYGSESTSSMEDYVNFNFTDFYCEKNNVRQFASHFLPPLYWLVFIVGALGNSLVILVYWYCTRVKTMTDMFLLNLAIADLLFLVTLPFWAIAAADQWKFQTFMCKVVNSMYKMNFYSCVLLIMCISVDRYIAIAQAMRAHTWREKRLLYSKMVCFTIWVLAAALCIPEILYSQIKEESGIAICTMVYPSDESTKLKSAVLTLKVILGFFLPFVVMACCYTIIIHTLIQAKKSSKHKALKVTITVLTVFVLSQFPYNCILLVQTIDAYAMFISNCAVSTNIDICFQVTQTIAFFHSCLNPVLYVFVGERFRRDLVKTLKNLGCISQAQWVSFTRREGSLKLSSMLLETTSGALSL

hCCR9 peptide P11A-N12A [2] = target: T2, hCCR9 peptide P11A-N12A (human); test: 2 x Ala-scan with substituted hCCR9 peptides (Fig. 9A)
T2 peptide: TDFTSPIAAMADDYGSEST

hCCR9 peptide N12A-M13A [3] = target: T3, hCCR9 peptide N12A-M13A (human); test: as above
T3 peptide: TDFTSPIPAAADDYGSEST

hCCR9 peptide D15A-D16A [4] = target: T4, hCCR9 peptide D15A-D16A (human); test: as above
T4 peptide: TDFTSPIPNMAAAYGSEST

hCCR9 peptide M13A-A14G [5] = target: T5, hCCR9 peptide M13A-A14G (human); test: as above
T5 peptide: TDFTSPIPNAGDDYGSEST

hCCR9 peptide D16A-Y17A [6] = target: T6, hCCR9 peptide D16A-Y17A (human); test: as above
T6 peptide: TDFTSPIPNMADAAGSEST

hCCR9 peptide P11A-N12A [7] = target: T2, hCCR9 peptide P11A-N12A; test: 2 x Ala-scan with substituted hCCR9 peptides (Fig. 9B)
hCCR9 peptide N12A-M13A [8] = target: T3, hCCR9 peptide N12A-M13A; test: as above
hCCR9 peptide D15A-D16A [9] = target: T4, hCCR9 peptide D15A-D16A; test: as above
hCCR9 peptide M13A-A14G [10] = target: T5, hCCR9 peptide M13A-A14G; test: as above
hCCR9 peptide D16A-Y17A [11] = target: T6, hCCR9 peptide D16A-Y17A; test: as above
[12] = target: T1, human CCR9 (C-C chemokine receptor type …); test: flow cytometry on MOLT-4 cells, unlabeled antibody, n=1
[13] = target: T1, human CCR9 (C-C chemokine receptor type …); test: flow cytometry on huCCR9-expressing HEK293 cells, PE anti-human Fc, mean ± SD, n=3
[14] = target: T1, human CCR9 (C-C chemokine receptor type …); test: flow cytometry on MOLT-4 cells; antibody incubated 4 days at 23°C
[15] = target: T1, human CCR9 (C-C chemokine receptor type …); test: flow cytometry on MOLT-4 cells; antibody incubated 4 days at 40°C
[16] = target: T7, N-terminal 6 (SPIPNMADDYG) (human); test: peptide inhibition: 1 µg/mL antibody pre-incubated with 100 µg/mL peptide, then binding to MOLT-4 cells by flow cytometry
T7 construct: also called peptide N-terminal 6
T7 peptide: SPIPNMADDYG

[17] = target: T1, human CCR9 (C-C chemokine receptor type …); test: cell-based or functional assay
[18] = target: T1, human CCR9 (C-C chemokine receptor type …); test: flow cytometry on MOLT-4 cells; antibody kept 4 days at 4°C (control)
[19] = target: T8, CCR9 N-terminal peptide 1 (TPTDFTSPIPNMADDYGSESTSS) (human, biotinylated in the ELISA of Example 2 (site not stated)); test: ELISA, plate coated with biotinylated CCR9 N-terminal peptide 1, anti-human Fc detection, n=2
T8 construct: Biotin is stated for the ELISA; also called N-terminal 1; biotinylated peptide from the N-terminal region of huCCR9
T8 peptide: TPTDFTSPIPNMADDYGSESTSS

[20] = target: T1, human CCR9 (C-C chemokine receptor type …); test: flow cytometry on CCR9-expressing MOLT-4 cells, PE anti-human Fc, mean ± SD, n=3
[21] = target: T1, human CCR9 (C-C chemokine receptor type …); test: flow cytometry on MOLT-4 cells, pHrodo-labeled antibody, n=1

| EC50 [12] | EC50 [13] | EC50 [14] | EC50 [15] | EC50 [18] | EC50 [19] | EC50 [20] | EC50 [21] | Binder | EC50 of cytotoxicity (ADCC, specific lysis of CFSE-stained MOLT-4 cells), PBMC batch HN#1 [17] | EC50 of cytotoxicity (ADCC, specific lysis of CFSE-stained MOLT-4 cells), PBMC batch HN#2 [17] | further results |
| --- | --- | --- | --- | --- | --- | --- | --- | --- | --- | --- | --- |
| – | – | – | – | – | – | – | 2.05 nM | huC9Mab19-VL2 pHrodo (antibody, V domains shown, pHrodo fluorophore label (sites not given), also called pHrodo-labeled huC9Mab19-VL2) VH: EVQLVESGGGLVKPGGSLRLSCAASGFTFSNYWMDWVRQAPGKGLEWVGEIRSKSNNYATHYAESMKGRFTISRDDSKNTLYLQMNSLKTEDTAVYYCAFYYSPYWGQGTLVTVSS VL: DVVMTQSPSSLSASVGDRVTITCRSSQSLLHSNGNTFLHWYQQKPGKAPKLLIYKVSNRFSGVPSRFSGSGSGTDFTLTISSLQPEDFATYYCSQTTHLPWTFGGGTKVEIK | – | – | – |
| 0.6 nM | 0.92 nM | 2.04 nM | 2 nM | 1.86 nM | 14.1 nM | 0.59 nM | – | huC9Mab-19-VL2 (antibody, V domains shown, Humanized IgG made in HEK293-6E cells) VH: EVQLVESGGGLVKPGGSLRLSCAASGFTFSNYWMDWVRQAPGKGLEWVGEIRSKSNNYATHYAESMKGRFTISRDDSKNTLYLQMNSLKTEDTAVYYCAFYYSPYWGQGTLVTVSS VL: DVVMTQSPSSLSASVGDRVTITCRSSQSLLHSNGNTFLHWYQQKPGKAPKLLIYKVSNRFSGVPSRFSGSGSGTDFTLTISSLQPEDFATYYCSQTTHLPWTFGGGTKVEIK | 0.23 nM | 0.06 nM | binding result [16]: binds |

The remaining lines, values behind:

| Binder | EC50 [12] | EC50 [13] | EC50 [14] | EC50 [15] | EC50 [18] | EC50 [19] | EC50 [20] | EC50 [21] | EC50 of cytotoxicity (ADCC, specific lysis of CFSE-stained MOLT-4 cells), PBMC batch HN#1 [17] | EC50 of cytotoxicity (ADCC, specific lysis of CFSE-stained MOLT-4 cells), PBMC batch HN#2 [17] | further results |
| --- | --- | --- | --- | --- | --- | --- | --- | --- | --- | --- | --- |
| IAb01 (antibody, V domains shown, Murine antibody) VH: EVKVEESGGGLVQPGGSMKLSCVVSGLTFSNFWMTWVRQSPEKGLEWVAEIRLKSNNYATHYAESVKGRFTISRDDSRSSVFLQMNNLRAEDTGIYYCTTDGWFAFWGQGTLVTVSA VL: QIVLTQSPTIMSASPGEKVTITCSASSSVSYMHWFQQKPGTSPKLWIYSTSNLASGVPARFSGSGSGTSYSLTISRMEAEDAATYYCQQRSSYPFTFGSGTKLEIKR | – | – | – | – | – | – | – | – | – | – | binding result [1]: binds |
| IAb02 (antibody, V domains shown, Murine antibody) VH: EVKVEESGGGLVQPGGSMKLSCAASGFIFSNFWMNWVRQSPEKGLEWIAEIRLKSNNYATHYAESVKGRFTISRDDSKSSVYLQMNNLRAEDTGIYYCATDGWFAFWGQGTLVTVSA VL: DVVMTQTPLSLPVSLGDQASISCRSSQSLVHSNGNTYLQWHLQKPGQSPKFLIYKVSNRFSGVPDRFSGSGSGTDFTLKISRVEAEDLGVYFCSQSTHVPRTFGGGTKLEIKR | – | – | – | – | – | – | – | – | – | – | binding result [1]: binds |
| C9Mab-16 (antibody, V domains shown, Murine parental antibody from hybridoma; also called C9M16; clone 16) VH: EVKLEESGGGLVLPGGSMKLSCVASGFTFSDYWMNWVRQSPEKGLEWVAEIRSKSKNYATHYEESVRGRCTISRDDSKSSVYLQMNNLRAEDTGIYFCMFFYSPYWGQGTLVTVSA VL: DVVMTQTPLSLPVSLGDQASISCRSSQSLVHSNGITFLHWYLQKPGQSPKLLIYKVSNRFSGVPDRFSGSGSGTDFTLKISRVEAEDLGVYFCSQTTHVPWTFGGGTKLEIKR | – | – | – | – | – | – | – | – | – | – | binding result (hCCR9 peptide P11A-N12A [2]): no binding; binding result (hCCR9 peptide N12A-M13A [3]): no binding; binding result (hCCR9 peptide D15A-D16A [4]): no binding; binding result (hCCR9 peptide M13A-A14G [5]): no binding; binding result (hCCR9 peptide D16A-Y17A [6]): no binding |
| C9Mab-19 (antibody, V domains shown, Murine parental antibody from hybridoma; also called C9M19; clone 19) VH: EVKLEESGGGLVQPGGSMKLSCVASGFTFSNYWMDWVRQSPEKGLEWVAEIRSKSNNYATHYAESMKGRFTISRDDSKSSVYLQMINLRTEDTGIYYCAFYYSPYWGQGTLVTVSA VL: DVVMTQTPLSLPVSLGDQASISCRSSQSLLHSNGNTFLHWYLQKPGQSPKLLIYKVSNRFSGVPDRFSGSGSGTDFTLKVSRVEAEDLGVYFCSQTTHLPWTFGGGTKLEIKR | – | – | – | – | – | – | – | – | – | – | binding result (hCCR9 peptide P11A-N12A [7]): no binding; binding result (hCCR9 peptide N12A-M13A [8]): no binding; binding result (hCCR9 peptide D15A-D16A [9]): no binding; binding result (hCCR9 peptide M13A-A14G [10]): no binding; binding result (hCCR9 peptide D16A-Y17A [11]): no binding |
| huC9Mab-16-VL2 (antibody, V domains shown, Humanized IgG made in HEK293-6E cells) VH: EVQLVESGGGLVKPGGSLRLSCAASGFTFSDYWMNWVRQAPGKGLEWVGEIRSKSKNYATHYEESVRGRFTISRDDSKNTLYLQMNSLKTEDTAVYYCMFFYSPYWGQGTLVTVSS VL: DVVMTQSPSSLSASVGDRVTITCRSSQSLVHSNGITFLHWYQQKPGKAPKLLIYKVSNRFSGVPSRFSGSGSGTDFTLTISSLQPEDFATYYCSQTTHVPWTFGGGTKVEIK | 0.27 nM | 0.1 nM | 0.4 nM | 0.25 nM | 0.4 nM | 0.546 nM | 0.24 nM | – | 0.005 nM | 0.01 nM | binding result [16]: binds |
| huC9Mab16-VL2 pHrodo (antibody, V domains shown, pHrodo fluorophore label (sites not given), also called pHrodo-labeled huC9Mab16-VL2) VH: EVQLVESGGGLVKPGGSLRLSCAASGFTFSDYWMNWVRQAPGKGLEWVGEIRSKSKNYATHYEESVRGRFTISRDDSKNTLYLQMNSLKTEDTAVYYCMFFYSPYWGQGTLVTVSS VL: DVVMTQSPSSLSASVGDRVTITCRSSQSLVHSNGITFLHWYQQKPGKAPKLLIYKVSNRFSGVPSRFSGSGSGTDFTLTISSLQPEDFATYYCSQTTHVPWTFGGGTKVEIK | – | – | – | – | – | – | – | 0.51 nM | – | – | – |
| SRB1 (antibody, V domains shown, Detected with anti-human Fc, so it has a human Fc; also called humanised version of the antibody 92R; positive control) VH: EVQLVESGGGLVKPGGSLRLSCAASGFTFSKFWMNWVRQAPGKGLEWVGEIRLKSNNYATHYAESVKGRFTISRDDSKNTLYLQMNSLKTEDTAVYYCTSDGWFAYWGQGTLVTVSS VL: DVQMTQSPSSLSASVGDRVTITCRSSQSLVHSNGNTYLNWYQQKPGKAPKLLIYKVSNRFSGVPSRFSGSGSGTDFTLTISSLQPEDFATYYCSQSTHFPRTFGGGTKVEIKR | 0.07 nM | 0.04 nM | 0.02 nM | 0.05 nM | 0.05 nM | 19.2 nM | 0.04 nM | – | 0.0008 nM | 0.003 nM | – |
| SRB1 pHrodo (antibody, V domains shown, pHrodo fluorophore label (sites not given), also called pHrodo-labeled SRB1) VH: EVQLVESGGGLVKPGGSLRLSCAASGFTFSKFWMNWVRQAPGKGLEWVGEIRLKSNNYATHYAESVKGRFTISRDDSKNTLYLQMNSLKTEDTAVYYCTSDGWFAYWGQGTLVTVSS VL: DVQMTQSPSSLSASVGDRVTITCRSSQSLVHSNGNTYLNWYQQKPGKAPKLLIYKVSNRFSGVPSRFSGSGSGTDFTLTISSLQPEDFATYYCSQSTHFPRTFGGGTKVEIKR | – | – | – | – | – | – | – | 0.08 nM | – | – | – |
